The source of these data is publication PMC4635569, “Complement Evasion Mediated by Enhancement of Captured Factor H: Implications for Protection of Self-Surfaces from Complement” (The Journal of Immunology Author Choice, 2015).

The labels stand for the following.
B1: plasma-derived human complement factor H (natural protein)
chain: EDCNELPPRRNTEILTGSWSDQTYPEGTQAIYKCRPGYRSLGNVIMVCRKGEWVALNPLRKCQKRPCGHPGDTPFGTFTLTGGNVFEYGVKAVYTCNEGYQLLGEINYRECDTDGWTNDIPICEVVKCLPVTAPENGKIVSSAMEPDREYHFGQAVRFVCNSGYKIEGDEEMHCSDDGFWSKEKPKCVEISCKSPDVINGSPISQKIIYKENERFQYKCNMGYEYSERGDAVCTESGWRPLPSCEEKSCDNPYIPNGDYSPLRIKHRTGDEITYQCRNGFYPATRGNTAKCTSTGWIPAPRCTLKPCDYPDIKHGGLYHENMRRPYFPVAVGKYYSYYCDEHFETPSGSYWDHIHCTQDGWSPAVPCLRKCYFPYLENGYNQNYGRKFVQGKSIDVACHPGYALPKAQTTVTCMENGWSPTPRCIRVKTCSKSSIDIENGFISESQYTYALKEKAKYQCKLGYVTADGETSGSITCGKDGWSAQPTCIKSCDIPVFMNARTKNDFTWFKLNDTLDYECHDGYESNTGSTTGSIVCGYNGWSDLPICYERECELPKIDVHLVPDRKKDQYKVGEVLKFSCKPGFTIVGPNSVQCYHFGLSPDLPICKEQVQSCGPPPELLNGNVKEKTKEEYGHSEVVEYYCNPRFLMKGPNKIQCVDGEWTTLPVCIVEESTCGDIPELEHGWAQLSSPPYYYGDSVEFNCSESFTMIGHRSITCIHGVWTQLPQCVAIDKLKKCKSSNLIILEEHLKNKKEFDHNSNIRYRCRGKEGWIHTVCINGRWDPEVNCSMAQIQLCPPPPQIPNSHNMTTTLNYRDGEKVSVLCQENYLIQEGEEITCKDGRWQSIPLCVEKIPCSQPPQIEHGTINSSRSSQESYAHGTKLSYTCEGGFRISEENETTCYMGKWSSPPQCEGLPCKSPPEISHGVVAHMSDSYQYGEEVTYKCFEGFGIDGPAIAKCLGEKWSHPPSCIKTDCLSLPSFENAIPMGEKKDVYKAGEQVTYTCATYYKMDGASNVTCINSRWTGRPTCRDTSCVNPPTVQNAYIVSRQMSKYPSGERVRYQCRSPYEMFGDEEVMCLNGNWTEPPQCKDSTGKCGPPPPIDNGDITSFPLSVYAPASSVEYQCQNLYQLEGNKRITCRNGQWSEPPKCLHPCVISREIMENYNIALRWTAKQKLYSRTGESVEFVCKRGYRLSSRSHTLRTTCWDGKLEYPTCAKR
notes: complement factor H (FH), human, 20 CCP modules, plasma-derived; Glycosylated plasma protein; monomer of 155 kDa by SEC-MALS; also called FH; plasma-purified human FH; source: bought: Complement Technologies, plasma-derived, used without further purification
B2: recombinant human FH with a wild-type sequence (natural protein)
chain: B1 chain
notes: Secreted from P. pastoris, so the native signal peptide is probably absent (surmise); also called rFH; recombinant wild-type FH; source: Pichia pastoris (fermentor), purified after enzymatic deglycosylation
B3: recombinant FH(D1119G) (natural protein)
chain: B1 chain with D1101G
notes: complement factor H, human, full-length, with the aHUS-linked substitution D1119G (CCP 19); Expression-optimized synthetic DNA; Secreted from P. pastoris, so the native signal peptide is probably absent (surmise); also called rFH(D1119G); rFH; source: Pichia pastoris (vector pPICZαB), purified as described for rFH

Residue numbers refer to the chain shown, from its start. Names and notes keep the numbering of the source.

T1 sequence (P01024 23-667, chain 1 of 2): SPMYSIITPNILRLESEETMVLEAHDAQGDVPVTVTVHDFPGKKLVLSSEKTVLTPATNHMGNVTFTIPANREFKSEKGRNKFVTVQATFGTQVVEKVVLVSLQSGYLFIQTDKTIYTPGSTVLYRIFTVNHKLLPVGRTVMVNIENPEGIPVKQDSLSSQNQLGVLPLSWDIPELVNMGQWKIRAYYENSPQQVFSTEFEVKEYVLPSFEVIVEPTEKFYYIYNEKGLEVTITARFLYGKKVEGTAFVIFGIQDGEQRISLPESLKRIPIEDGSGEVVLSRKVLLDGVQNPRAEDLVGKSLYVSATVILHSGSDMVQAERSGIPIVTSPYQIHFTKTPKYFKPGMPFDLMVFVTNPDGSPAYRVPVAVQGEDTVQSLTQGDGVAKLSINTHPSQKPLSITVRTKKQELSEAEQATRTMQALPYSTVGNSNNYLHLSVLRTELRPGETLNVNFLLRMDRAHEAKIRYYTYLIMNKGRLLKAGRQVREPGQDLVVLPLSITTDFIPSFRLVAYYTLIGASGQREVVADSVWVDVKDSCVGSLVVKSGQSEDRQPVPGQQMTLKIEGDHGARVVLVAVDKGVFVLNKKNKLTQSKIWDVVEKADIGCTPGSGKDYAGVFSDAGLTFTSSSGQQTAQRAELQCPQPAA
T1 sequence (P01024 749-1663, chain 2 of 2): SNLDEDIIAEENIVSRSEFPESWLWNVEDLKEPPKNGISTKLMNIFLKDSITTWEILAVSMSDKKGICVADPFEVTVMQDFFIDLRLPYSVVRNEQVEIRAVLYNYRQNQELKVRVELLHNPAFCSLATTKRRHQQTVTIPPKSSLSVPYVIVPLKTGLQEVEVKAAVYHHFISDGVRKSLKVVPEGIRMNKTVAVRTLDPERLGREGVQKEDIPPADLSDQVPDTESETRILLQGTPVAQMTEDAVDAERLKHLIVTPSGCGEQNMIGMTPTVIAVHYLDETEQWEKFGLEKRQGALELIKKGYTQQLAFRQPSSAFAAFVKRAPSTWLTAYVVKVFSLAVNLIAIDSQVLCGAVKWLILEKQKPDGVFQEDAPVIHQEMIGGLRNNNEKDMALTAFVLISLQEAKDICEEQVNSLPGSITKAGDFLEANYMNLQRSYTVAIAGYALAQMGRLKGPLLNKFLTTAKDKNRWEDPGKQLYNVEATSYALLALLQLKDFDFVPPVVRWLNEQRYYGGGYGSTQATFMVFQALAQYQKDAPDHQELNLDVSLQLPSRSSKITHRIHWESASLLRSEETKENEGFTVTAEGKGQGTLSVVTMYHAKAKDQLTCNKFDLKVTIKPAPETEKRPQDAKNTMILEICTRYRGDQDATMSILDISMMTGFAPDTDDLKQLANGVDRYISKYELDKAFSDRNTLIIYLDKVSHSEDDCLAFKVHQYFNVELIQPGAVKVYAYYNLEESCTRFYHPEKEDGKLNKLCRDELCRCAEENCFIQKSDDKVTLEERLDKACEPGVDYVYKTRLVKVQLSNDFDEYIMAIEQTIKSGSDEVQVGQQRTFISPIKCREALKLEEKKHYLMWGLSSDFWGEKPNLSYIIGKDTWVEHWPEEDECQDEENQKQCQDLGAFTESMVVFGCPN

This test addresses T1, human C3b (human, UniProt P01024 23-667; P01024 749-1663).
T1 construct: Amine coupled to the SPR chips (C1 or CM5); source: bought: Complement Technologies, plasma-derived, used without further purification
In words: SPR; C3b (~250 RU) or C3d (~70 RU) amine coupled to adjacent flow cells of a Biacore C1 chip; FH preincubated with or without a 2-fold molar excess of PspCN injected (90 s, 30 μl/min, 400 s dissociation); 1:1 binding model. The conditions noted are these: both partners purified.
B1 gave an equilibrium dissociation constant (Kd) of 490 nM.

B2 came in with a Kd of 600 nM.

B3 displayed a Kd of 540 nM.

Usually Kd stands for the free concentration of one partner at which half of the binding sites on the other are occupied at equilibrium, for simple one-to-one binding. Low values mean higher affinity, high ones lower affinity.
